The source of these data is paper PMC9643514, “Regulation of BRCA1 stability through the tandem UBX domains of isoleucyl-tRNA synthetase 1” (Nature Communications, 2022).

Test [1] has as its target T1, His-IARS1, full-length human IARS1 (residues 1−1262) (human, UniProt P41252 1-1262).
T1 construct: pFASTbacHTb vector; also called purified IARS1; full-length IARS1; source: Sf9, purified (Ni2+ column, IEX, SEC); not shown: His6, N-terminal, kept
T1 sequence (looked up): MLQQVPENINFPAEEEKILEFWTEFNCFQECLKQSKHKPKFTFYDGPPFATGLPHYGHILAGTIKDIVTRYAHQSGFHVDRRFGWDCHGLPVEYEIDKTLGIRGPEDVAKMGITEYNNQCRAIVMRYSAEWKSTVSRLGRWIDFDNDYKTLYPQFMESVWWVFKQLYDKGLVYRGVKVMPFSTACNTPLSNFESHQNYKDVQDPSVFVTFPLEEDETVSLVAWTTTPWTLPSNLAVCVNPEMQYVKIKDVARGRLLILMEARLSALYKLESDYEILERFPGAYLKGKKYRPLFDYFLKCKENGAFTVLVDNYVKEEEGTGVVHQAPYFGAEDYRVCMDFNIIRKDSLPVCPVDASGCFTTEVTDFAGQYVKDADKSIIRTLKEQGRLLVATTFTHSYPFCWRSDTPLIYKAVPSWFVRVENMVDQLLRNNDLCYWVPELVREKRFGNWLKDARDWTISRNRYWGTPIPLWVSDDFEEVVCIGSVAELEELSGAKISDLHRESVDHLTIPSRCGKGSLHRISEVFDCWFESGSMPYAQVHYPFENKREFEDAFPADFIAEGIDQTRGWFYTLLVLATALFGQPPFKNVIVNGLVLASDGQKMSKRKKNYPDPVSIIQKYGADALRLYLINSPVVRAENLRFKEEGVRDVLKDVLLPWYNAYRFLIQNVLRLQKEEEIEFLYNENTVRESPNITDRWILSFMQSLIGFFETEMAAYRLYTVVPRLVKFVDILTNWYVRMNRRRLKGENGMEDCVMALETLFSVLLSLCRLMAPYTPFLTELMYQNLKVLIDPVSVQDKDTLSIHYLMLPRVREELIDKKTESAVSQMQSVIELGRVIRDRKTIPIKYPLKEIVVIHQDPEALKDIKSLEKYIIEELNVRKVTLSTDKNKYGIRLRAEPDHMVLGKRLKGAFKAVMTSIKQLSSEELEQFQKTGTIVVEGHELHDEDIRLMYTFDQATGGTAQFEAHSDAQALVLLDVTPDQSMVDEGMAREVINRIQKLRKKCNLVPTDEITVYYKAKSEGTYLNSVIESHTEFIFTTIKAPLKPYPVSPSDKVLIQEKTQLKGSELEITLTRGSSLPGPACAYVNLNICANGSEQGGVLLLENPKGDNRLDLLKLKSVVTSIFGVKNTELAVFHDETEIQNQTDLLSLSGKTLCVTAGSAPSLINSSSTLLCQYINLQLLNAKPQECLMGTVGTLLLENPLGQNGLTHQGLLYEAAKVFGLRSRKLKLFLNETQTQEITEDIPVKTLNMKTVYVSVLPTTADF
Kind of test: pull-down; human His-IARS1 or IARS1ΔUBX2 mixed with human GST-EARS1 at 1:1.5, 30 min at 4 °C, Ni-sepharose beads 2 hr at 4 °C, eluted with 250 mM imidazole in His A buffer (20 mM Tris-HCl pH 7.4, 300 mM NaCl, 7 mM 2-mercaptoethanol, 5% glycerol), SDS-PAGE and Coomassie. The settings on record: both partners purified.

Test [2] addresses T1, His-IARS1, full-length human IARS1 …. The test is described as follows: pull-down; in vitro pull-down of IARS1 with fragments of the BRCA1-BARD1 complex. The settings on record: both partners purified.

B1: GST-EARS1 with three WHEP motifs (human EPRS1 residues 1–1015) (domain or fragment, UniProt P07814 1-1015, looked up)
chain: MATLSLTVNSGDPPLGALLAVEHVKDDVSISVEEGKENILHVSENVIFTDVNSILRYLARVATTAGLYGSNLMEHTEIDHWLEFSATKLSSCDSFTSTINELNHCLSLRTYLVGNSLSLADLCVWATLKGNAAWQEQLKQKKAPVHVKRWFGFLEAQQAFQSVGTKWDVSTTKARVAPEKKQDVGKFVELPGAEMGKVTVRFPPEASGYLHIGHAKAALLNQHYQVNFKGKLIMRFDDTNPEKEKEDFEKVILEDVAMLHIKPDQFTYTSDHFETIMKYAEKLIQEGKAYVDDTPAEQMKAEREQRIDSKHRKNPIEKNLQMWEEMKKGSQFGQSCCLRAKIDMSSNNGCMRDPTLYRCKIQPHPRTGNKYNVYPTYDFACPIVDSIEGVTHALRTTEYHDRDEQFYWIIEALGIRKPYIWEYSRLNLNNTVLSKRKLTWFVNEGLVDGWDDPRFPTVRGVLRRGMTVEGLKQFIAAQGSSRSVVNMEWDKIWAFNKKVIDPVAPRYVALLKKEVIPVNVPEAQEEMKEVAKHPKNPEVGLKPVWYSPKVFIEGADAETFSEGEMVTFINWGNLNITKIHKNADGKIISLDAKLNLENKDYKKTTKVTWLAETTHALPIPVICVTYEHLITKPVLGKDEDFKQYVNKNSKHEELMLGDPCLKDLKKGDIIQLQRRGFFICDQPYEPVSPYSCKEAPCVLIYIPDGHTKEMPTSGSKEKTKVEATKNETSAPFKERPTPSLNNNCTTSEDSLVLYNRVAVQGDVVRELKAKKAPKEDVDAAVKQLLSLKAEYKEKTGQEYKPGNPPAEIGQNISSNSSASILESKSLYDEVAAQGEVVRKLKAEKSPKAKINEAVECLLSLKAQYKEKTGKEYIPGQPPLSQSSDSSPTRNSEPAGLETPEAKVLFDKVASQGEVVRKLKTEKAPKDQVDIAVQELLQLKAQYKSLIGVEYKPVSATGAEDKDKKKKEKENKSEKQNKPQKQNDGQRKDPSKNQGGGLSSSGAGEGQGPKKQTRLG
notes: pGEX4T3 vector; source: E. coli Rosetta (DE3), purified (GST column, gel filtration)
B1: the binding result in test [1] is reported as “binds”.

B2: BRCT domain (residues 1645–1863) of BRCA1 (domain or fragment, UniProt P38398 1645-1863, looked up)
chain: RVNKRMSMVVSGLTPEEFMLVYKFARKHHITLTNLITEETTHVVMKTDAEFVCERTLKYFLGIAGGKWVVSYFWVTQSIKERKMLNEHDFEVRGDVVNGRNHQGPKRARESQDRKIFRGLEICCYGPFTNMPTDQLEWMVQLCGASVVKELSSFTLGTGVHPIVVVQPDAWTEDNGFHAIGQMCEAPVVTREWVLDSVALYQCQELDTYLIPQIPHSHY
notes: BRCA1 BRCT domain, residues 1645-1863; also called BRCA1 BRCT
On to B2, for which the binding result in test [2] is recorded as “binds”.

B3: GST-EARS1 without the WHEP motifs (human EPRS1 residues 1−706) (domain or fragment, UniProt P07814 1-706, looked up)
chain: MATLSLTVNSGDPPLGALLAVEHVKDDVSISVEEGKENILHVSENVIFTDVNSILRYLARVATTAGLYGSNLMEHTEIDHWLEFSATKLSSCDSFTSTINELNHCLSLRTYLVGNSLSLADLCVWATLKGNAAWQEQLKQKKAPVHVKRWFGFLEAQQAFQSVGTKWDVSTTKARVAPEKKQDVGKFVELPGAEMGKVTVRFPPEASGYLHIGHAKAALLNQHYQVNFKGKLIMRFDDTNPEKEKEDFEKVILEDVAMLHIKPDQFTYTSDHFETIMKYAEKLIQEGKAYVDDTPAEQMKAEREQRIDSKHRKNPIEKNLQMWEEMKKGSQFGQSCCLRAKIDMSSNNGCMRDPTLYRCKIQPHPRTGNKYNVYPTYDFACPIVDSIEGVTHALRTTEYHDRDEQFYWIIEALGIRKPYIWEYSRLNLNNTVLSKRKLTWFVNEGLVDGWDDPRFPTVRGVLRRGMTVEGLKQFIAAQGSSRSVVNMEWDKIWAFNKKVIDPVAPRYVALLKKEVIPVNVPEAQEEMKEVAKHPKNPEVGLKPVWYSPKVFIEGADAETFSEGEMVTFINWGNLNITKIHKNADGKIISLDAKLNLENKDYKKTTKVTWLAETTHALPIPVICVTYEHLITKPVLGKDEDFKQYVNKNSKHEELMLGDPCLKDLKKGDIIQLQRRGFFICDQPYEPVSPYSCKEAPCVLIYIPDGH
notes: human EPRS1, EARS1 part without the three WHEP motifs, residues 1-706; pGEX4T3 vector; source: E. coli Rosetta (DE3), purified (GST column, gel filtration)
As to B3, the binding result in test [1] is “binds”.

B4: heterodimeric RING (BRCA1 residues 1–304)-RING (BARD1 residues 26–142) domains of the BRCA1-BARD1 complex (complex)
chain 1: MDLSALRVEEVQNVINAMQKILECPICLELIKEPVSTKCDHIFCKFCMLKLLNQKKGPSQCPLCKNDITKRSLQESTRFSQLVEELLKIICAFQLDTGLEYANSYNFAKKENNSPEHLKDEVSIIQSMGYRNRAKRLLQSEPENPSLQETSLSVQLSNLGTVRTLRTKQRIQPQKTSVYIELGSDSSEDTVNKATYCSVGDQELLQITPQGTRDEISLDSAKKAACEFSETDVTNTEHHQPSNNDLNTTEKRAAERHPEKYQGSSVSNLHVEPCGTNTHASSLQHENSSLLLTKDRMNVEKAEF
chain 2: MEPDGRGAWAHSRAALDRLEKLLRCSRCTNILREPVCLGGCEHIFCSNCVSDCIGTGCPVCYTPAWIQDLKINRQLDSMIQLCSKLRNLLHDNELSDLKEDKPRKSLFNDAGNKKNS
notes: also called RING-RING domains; source: expressed and purified as the BRCA1-BARD1 complex
For B4, the binding result in test [2] was “binds”.
